{
  "source": "the supplement of paper PMC10567573",
  "parents": {"B1": {"name": "TNXB (parent)", "chain": "LLQRELMVPGTRHSAVLRDLRSGT"}},
  "data": [
    {"variants_of": "B1", "assay": "protein stability index of a GFP-peptide fusion (GPS, HEK-293T) (PSI 1-6); higher = more stable", "settings": "c terminus: a fixed tail appended", "values": [
      {"variant": "LLQRELMVPGNRHSAVLRDLRSGT", "note": "[T11N]", "protein stability index": 2.43},
      {"variant": "LLQRELMVPGYRHSAVLRDLRSGT", "note": "[T11Y]", "protein stability index": 1.94},
      {"variant": "LLQRELMVPGGRHSAVLRDLRSGT", "note": "[T11G]", "protein stability index": 3.21},
      {"variant": "LLQRELMVPGLRHSAVLRDLRSGT", "note": "[T11L]", "protein stability index": 2.32},
      {"variant": "LLQRELMVPGDRHSAVLRDLRSGT", "note": "[T11D]", "protein stability index": 2.81},
      {"variant": "LLQRELMVPGIRHSAVLRDLRSGT", "note": "[T11I]", "protein stability index": 2.38},
      {"variant": "LLQRELMVPGFRHSAVLRDLRSGT", "note": "[T11F]", "protein stability index": 2.3},
      {"variant": "LLQRELMVPGRRHSAVLRDLRSGT", "note": "[T11R]", "protein stability index": 2.13},
      {"variant": "LLQRELMVPGQRHSAVLRDLRSGT", "note": "[T11Q]", "protein stability index": 2.88},
      {"variant": "LLQRELMVPGSRHSAVLRDLRSGT", "note": "[T11S]", "protein stability index": 2.5},
      {"variant": "LLQRELMVPGHRHSAVLRDLRSGT", "note": "[T11H]", "protein stability index": 2.68},
      {"variant": "LLQRELMVPGCRHSAVLRDLRSGT", "note": "[T11C]", "protein stability index": 1.56},
      {"variant": "LLQRELMVPGARHSAVLRDLRSGT", "note": "[T11A]", "protein stability index": 2.2},
      {"variant": "LLQRELMVPGMRHSAVLRDLRSGT", "note": "[T11M]", "protein stability index": 2.2},
      {"variant": "LLQRELMVPGPRHSAVLRDLRSGT", "note": "[T11P]", "protein stability index": 2.51},
      {"variant": "LLQRELMVPGWRHSAVLRDLRSGT", "note": "[T11W]", "protein stability index": 1.69},
      {"variant": "LLQRELMVPGVRHSAVLRDLRSGT", "note": "[T11V]", "protein stability index": 2.24},
      {"variant": "LLQRELMVPGKRHSAVLRDLRSGT", "note": "[T11K]", "protein stability index": 2.32},
      {"variant": "LLQRELMVPGERHSAVLRDLRSGT", "note": "[T11E]", "protein stability index": 2.65},
      {"variant": "LLQRELMVPATRHSAVLRDLRSGT", "note": "[G10A]", "protein stability index": 2.39},
      {"variant": "LLQRELMVPLTRHSAVLRDLRSGT", "note": "[G10L]", "protein stability index": 1.35},
      {"variant": "LLQRELMVPVTRHSAVLRDLRSGT", "note": "[G10V]", "protein stability index": 2.02},
      {"variant": "LLQRELMVPRTRHSAVLRDLRSGT", "note": "[G10R]", "protein stability index": 2.9},
      {"variant": "LLQRELMVPITRHSAVLRDLRSGT", "note": "[G10I]", "protein stability index": 1.64},
      {"variant": "LLQRELMVPDTRHSAVLRDLRSGT", "note": "[G10D]", "protein stability index": 2.85},
      {"variant": "LLQRELMVPPTRHSAVLRDLRSGT", "note": "[G10P]", "protein stability index": 2.54},
      {"variant": "LLQRELMVPFTRHSAVLRDLRSGT", "note": "[G10F]", "protein stability index": 2.33},
      {"variant": "LLQRELMVPMTRHSAVLRDLRSGT", "note": "[G10M]", "protein stability index": 1.72},
      {"variant": "LLQRELMVPHTRHSAVLRDLRSGT", "note": "[G10H]", "protein stability index": 2.19},
      {"variant": "LLQRELMVPYTRHSAVLRDLRSGT", "note": "[G10Y]", "protein stability index": 1.09},
      {"variant": "LLQRELMVPKTRHSAVLRDLRSGT", "note": "[G10K]", "protein stability index": 2},
      {"variant": "LLQRELMVPSTRHSAVLRDLRSGT", "note": "[G10S]", "protein stability index": 3.01},
      {"variant": "LLQRELMVPTTRHSAVLRDLRSGT", "note": "[G10T]", "protein stability index": 2.58},
      {"variant": "LLQRELMVPNTRHSAVLRDLRSGT", "note": "[G10N]", "protein stability index": 2.75},
      {"variant": "LLQRELMVPETRHSAVLRDLRSGT", "note": "[G10E]", "protein stability index": 3.01},
      {"variant": "LLQRELMVPQTRHSAVLRDLRSGT", "note": "[G10Q]", "protein stability index": 2.41},
      {"variant": "LLQRELMVPWTRHSAVLRDLRSGT", "note": "[G10W]", "protein stability index": 1.72},
      {"variant": "LLQRELMVPCTRHSAVLRDLRSGT", "note": "[G10C]", "protein stability index": 1.43},
      {"variant": "LLQRELMVPGTRHSAVFRDLRSGT", "note": "[L17F]", "protein stability index": 2.23},
      {"variant": "LLQRELMVPGTRHSAVYRDLRSGT", "note": "[L17Y]", "protein stability index": 2.45},
      {"variant": "LLQRELMVPGTRHSAVTRDLRSGT", "note": "[L17T]", "protein stability index": 2.73},
      {"variant": "LLQRELMVPGTRHSAVARDLRSGT", "note": "[L17A]", "protein stability index": 2.55},
      {"variant": "LLQRELMVPGTRHSAVGRDLRSGT", "note": "[L17G]", "protein stability index": 2.84},
      {"variant": "LLQRELMVPGTRHSAVHRDLRSGT", "note": "[L17H]", "protein stability index": 2.28},
      {"variant": "LLQRELMVPGTRHSAVRRDLRSGT", "note": "[L17R]", "protein stability index": 3.46},
      {"variant": "LLQRELMVPGTRHSAVPRDLRSGT", "note": "[L17P]", "protein stability index": 2.97},
      {"variant": "LLQRELMVPGTRHSAVSRDLRSGT", "note": "[L17S]", "protein stability index": 3.16},
      {"variant": "LLQRELMVPGTRHSAVCRDLRSGT", "note": "[L17C]", "protein stability index": 2.54},
      {"variant": "LLQRELMVPGTRHSAVKRDLRSGT", "note": "[L17K]", "protein stability index": 3.75},
      {"variant": "LLQRELMVPGTRHSAVDRDLRSGT", "note": "[L17D]", "protein stability index": 2.62},
      {"variant": "LLQRELMVPGTRHSAVVRDLRSGT", "note": "[L17V]", "protein stability index": 2.85},
      {"variant": "LLQRELMVPGTRHSAVNRDLRSGT", "note": "[L17N]", "protein stability index": 2.96},
      {"variant": "LLQRELMVPGTRHSAVQRDLRSGT", "note": "[L17Q]", "protein stability index": 3.32},
      {"variant": "LLQRELMVPGTRHSAVWRDLRSGT", "note": "[L17W]", "protein stability index": 2.38},
      {"variant": "LLQRELMVPGTRHSAVIRDLRSGT", "note": "[L17I]", "protein stability index": 2.81},
      {"variant": "LLQRELMVPGTRHSAVERDLRSGT", "note": "[L17E]", "protein stability index": 3.47},
      {"variant": "LLQRELMVPGTRHSAVMRDLRSGT", "note": "[L17M]", "protein stability index": 3.05},
      {"variant": "LLQRELMVPGTRHSAALRDLRSGT", "note": "[V16A]", "protein stability index": 3.05},
      {"variant": "LLQRELMVPGTRHSAPLRDLRSGT", "note": "[V16P]", "protein stability index": 2.82},
      {"variant": "LLQRELMVPGTRHSASLRDLRSGT", "note": "[V16S]", "protein stability index": 2.27},
      {"variant": "LLQRELMVPGTRHSANLRDLRSGT", "note": "[V16N]", "protein stability index": 3},
      {"variant": "LLQRELMVPGTRHSARLRDLRSGT", "note": "[V16R]", "protein stability index": 2.52},
      {"variant": "LLQRELMVPGTRHSAKLRDLRSGT", "note": "[V16K]", "protein stability index": 2.48},
      {"variant": "LLQRELMVPGTRHSACLRDLRSGT", "note": "[V16C]", "protein stability index": 2.02},
      {"variant": "LLQRELMVPGTRHSAELRDLRSGT", "note": "[V16E]", "protein stability index": 2.72},
      {"variant": "LLQRELMVPGTRHSALLRDLRSGT", "note": "[V16L]", "protein stability index": 2.33},
      {"variant": "LLQRELMVPGTRHSAILRDLRSGT", "note": "[V16I]", "protein stability index": 2.11},
      {"variant": "LLQRELMVPGTRHSAQLRDLRSGT", "note": "[V16Q]", "protein stability index": 2.68},
      {"variant": "LLQRELMVPGTRHSAWLRDLRSGT", "note": "[V16W]", "protein stability index": 2.06},
      {"variant": "LLQRELMVPGTRHSADLRDLRSGT", "note": "[V16D]", "protein stability index": 3.19},
      {"variant": "LLQRELMVPGTRHSAYLRDLRSGT", "note": "[V16Y]", "protein stability index": 3.05},
      {"variant": "LLQRELMVPGTRHSAHLRDLRSGT", "note": "[V16H]", "protein stability index": 2.46},
      {"variant": "LLQRELMVPGTRHSAMLRDLRSGT", "note": "[V16M]", "protein stability index": 2.15},
      {"variant": "LLQRELMVPGTRHSATLRDLRSGT", "note": "[V16T]", "protein stability index": 2.7},
      {"variant": "LLQRELMVPGTRHSAFLRDLRSGT", "note": "[V16F]", "protein stability index": 1.71},
      {"variant": "LLQRELMVPGTRHSKVLRDLRSGT", "note": "[A15K]", "protein stability index": 2.82},
      {"variant": "LLQRELMVPGTRHSEVLRDLRSGT", "note": "[A15E]", "protein stability index": 2.92},
      {"variant": "LLQRELMVPGTRHSDVLRDLRSGT", "note": "[A15D]", "protein stability index": 2.29},
      {"variant": "LLQRELMVPGTRHSMVLRDLRSGT", "note": "[A15M]", "protein stability index": 2.43},
      {"variant": "LLQRELMVPGTRHSGVLRDLRSGT", "note": "[A15G]", "protein stability index": 2.34},
      {"variant": "LLQRELMVPGTRHSCVLRDLRSGT", "note": "[A15C]", "protein stability index": 1.72},
      {"variant": "LLQRELMVPGTRHSRVLRDLRSGT", "note": "[A15R]", "protein stability index": 3.4},
      {"variant": "LLQRELMVPGTRHSPVLRDLRSGT", "note": "[A15P]", "protein stability index": 2.35},
      {"variant": "LLQRELMVPGTRHSNVLRDLRSGT", "note": "[A15N]", "protein stability index": 3.19},
      {"variant": "LLQRELMVPGTRHSYVLRDLRSGT", "note": "[A15Y]", "protein stability index": 1.62},
      {"variant": "LLQRELMVPGTRHSVVLRDLRSGT", "note": "[A15V]", "protein stability index": 1.95},
      {"variant": "LLQRELMVPGTRHSTVLRDLRSGT", "note": "[A15T]", "protein stability index": 2.18},
      {"variant": "LLQRELMVPGTRHSSVLRDLRSGT", "note": "[A15S]", "protein stability index": 2.27},
      {"variant": "LLQRELMVPGTRHSHVLRDLRSGT", "note": "[A15H]", "protein stability index": 2.41},
      {"variant": "LLQRELMVPGTRHSLVLRDLRSGT", "note": "[A15L]", "protein stability index": 2.14},
      {"variant": "LLQRELMVPGTRHSFVLRDLRSGT", "note": "[A15F]", "protein stability index": 1.98},
      {"variant": "LLQRELMVPGTRHSWVLRDLRSGT", "note": "[A15W]", "protein stability index": 3.49},
      {"variant": "LLQRELMVPGTRHSQVLRDLRSGT", "note": "[A15Q]", "protein stability index": 1.97},
      {"variant": "LLQRELMVPGTRHSIVLRDLRSGT", "note": "[A15I]", "protein stability index": 2.26}
    ]}
  ]
}
